In this data set the target is human FX, P00742.
human FX, P00742, sequence (P00742 whole entry, looked up): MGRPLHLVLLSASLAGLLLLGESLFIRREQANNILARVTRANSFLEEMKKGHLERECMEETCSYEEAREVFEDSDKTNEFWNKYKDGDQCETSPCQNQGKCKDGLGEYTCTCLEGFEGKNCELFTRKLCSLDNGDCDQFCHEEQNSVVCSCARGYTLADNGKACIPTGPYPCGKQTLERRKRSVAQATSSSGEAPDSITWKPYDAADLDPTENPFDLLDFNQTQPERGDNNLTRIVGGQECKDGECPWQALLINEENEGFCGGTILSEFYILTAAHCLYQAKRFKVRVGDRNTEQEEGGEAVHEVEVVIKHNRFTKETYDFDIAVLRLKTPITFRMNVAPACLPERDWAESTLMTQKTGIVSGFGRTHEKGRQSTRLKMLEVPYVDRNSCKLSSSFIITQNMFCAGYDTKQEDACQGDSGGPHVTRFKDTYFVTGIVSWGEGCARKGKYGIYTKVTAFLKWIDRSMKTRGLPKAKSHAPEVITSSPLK

B1: wildtype FVIIa (protein)
chain 1: ANAFLEELRPGSLERECKEEQCSFEEAREIFKDAERTKLFWISYSDGDQCASSPCQNGGSCKDQLQSYICFCLPAFEGRNCETHKDDQLICVNENGGCEQYCSDHTGTKRSCRCHEGYSLLADGVSCTPTVEYPCGKIPILEKRNASKPQGR
chain 2: IVGGKVCPKGECPWQVLLLVNGAQLCGGTLINTIWVVSAAHCFDKIKNWRNLIAVLGEHDLSEHDGDEQSRRVAQVIIPSTYVPGTTNHDIALLRLHQPVVLTDHVVPLCLPERTFSERTLAFVRFSLVSGWGQLLDRGATALELMVLNVPRLMTQDCLQQSRKVGDSPNITEYMFCAGYSDGSKDSCKGDSGGPHATHYRGTWYLTGIVSWGQGCATVGHFGVYTRVSQYIEWLQKLMRSEPRPGVLLRAPFP
On to B1, for which the Km, FX activation by relipidated TF•FVIIa (0.4 nM relipidated TF, 1 nM FVIIa) stood at 0.13 µM; the Vmax, FX activation by relipidated TF•FVIIa (0.4 nM relipidated TF, 1 nM FVIIa) was 600 mOD405/min; the Vmax/Km, FX activation by relipidated TF•FVIIa (mOD405/min/nM) was 4.6.

The values above are taken from patent publication US20060019893.
